From paper PMC4490564, “Molecular snapshots of the Pex1/6 AAA+ complex in action” (Nature Communications, 2015)
Each block holds one binder with its values, some of them ahead of it.

Tests used:
Assay in all cases: negative stain EM (single-particle analysis, 3D reconstruction); purified complexes at 40-50 ug/ml, incubated with ATPγS (2.5 mM), ATP (5 mM), ADP (5 mM) or ADP-AlFx, adsorbed on carbon grids, stained with 2% uranyl acetate; threefold symmetry imposed
Conditions in all cases: both partners purified
[1] = target: T1, Pex1 (wild type, from HisPex1GST after thrombin cleavage) (yeast, UniProt P24004 1-1043)
T1 construct: Pex1, yeast, type II AAA+ ATPase; PEX1 amplified from genomic DNA; 1,043 amino acids (from the range printed for Δ188PEX1); also called Pex1 of Pex1/6; source: E. coli Tuner (DE3), purified together with HisPex6 (Ni-NTA agarose, glutathione agarose, eluted by thrombin cleavage); not shown: GST, C-terminal, cleaved
T1 sequence (looked up): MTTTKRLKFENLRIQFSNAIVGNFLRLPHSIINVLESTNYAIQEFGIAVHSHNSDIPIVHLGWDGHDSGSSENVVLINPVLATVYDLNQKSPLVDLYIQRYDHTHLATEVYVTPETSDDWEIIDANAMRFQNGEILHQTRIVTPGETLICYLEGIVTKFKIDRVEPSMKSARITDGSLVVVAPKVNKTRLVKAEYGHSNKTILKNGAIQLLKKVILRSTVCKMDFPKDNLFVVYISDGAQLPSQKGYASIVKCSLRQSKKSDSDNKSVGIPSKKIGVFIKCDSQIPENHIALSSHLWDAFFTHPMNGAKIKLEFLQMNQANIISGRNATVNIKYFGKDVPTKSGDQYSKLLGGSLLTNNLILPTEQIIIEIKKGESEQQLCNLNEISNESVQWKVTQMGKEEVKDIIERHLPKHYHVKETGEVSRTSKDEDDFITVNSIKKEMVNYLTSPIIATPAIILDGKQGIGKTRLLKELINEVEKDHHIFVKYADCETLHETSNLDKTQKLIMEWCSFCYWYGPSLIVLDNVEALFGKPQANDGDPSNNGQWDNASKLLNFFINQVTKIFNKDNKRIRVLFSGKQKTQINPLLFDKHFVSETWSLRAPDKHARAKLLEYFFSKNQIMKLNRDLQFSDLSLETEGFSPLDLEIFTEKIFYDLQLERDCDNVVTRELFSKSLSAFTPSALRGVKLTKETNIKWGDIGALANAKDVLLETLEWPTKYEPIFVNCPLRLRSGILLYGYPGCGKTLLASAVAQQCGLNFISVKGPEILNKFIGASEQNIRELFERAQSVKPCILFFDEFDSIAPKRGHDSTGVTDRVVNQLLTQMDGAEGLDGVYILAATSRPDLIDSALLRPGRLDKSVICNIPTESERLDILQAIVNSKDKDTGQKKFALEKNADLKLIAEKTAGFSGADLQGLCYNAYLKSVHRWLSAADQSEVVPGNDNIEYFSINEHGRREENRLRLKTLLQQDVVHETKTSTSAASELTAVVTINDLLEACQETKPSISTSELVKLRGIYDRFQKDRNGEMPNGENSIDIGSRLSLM

[2] = target: T2, Pex1GST (Pex1 with the C-terminal GST kept) (yeast, UniProt P24004 1-1043)
T2 construct: Pex1, yeast; PEX1 cloned into pRSFDuet-cGST (GST with a thrombin cleavage site); also called HisPex1GST; source: E. coli Tuner (DE3), purified; not shown: GST, C-terminal, kept
T2 sequence (looked up): T1 sequence (looked up)

[3] = target: T3, Pex6 (wild type, overexpressed in yeast) (yeast, UniProt P33760 1-1030)
T3 construct: Pex6, yeast; full-length PEX6 amplified from genomic DNA, in pRS425GAL or pYES2; also called Pex6 of Δ188Pex1/Pex6 and of Pex1WB/6; source: S. cerevisiae, overexpressed (2% galactose), purified (IgG Sepharose, TEV cleavage, glycerol gradient); not shown: protein A (ProA), C-terminal, cleaved
T3 sequence (looked up): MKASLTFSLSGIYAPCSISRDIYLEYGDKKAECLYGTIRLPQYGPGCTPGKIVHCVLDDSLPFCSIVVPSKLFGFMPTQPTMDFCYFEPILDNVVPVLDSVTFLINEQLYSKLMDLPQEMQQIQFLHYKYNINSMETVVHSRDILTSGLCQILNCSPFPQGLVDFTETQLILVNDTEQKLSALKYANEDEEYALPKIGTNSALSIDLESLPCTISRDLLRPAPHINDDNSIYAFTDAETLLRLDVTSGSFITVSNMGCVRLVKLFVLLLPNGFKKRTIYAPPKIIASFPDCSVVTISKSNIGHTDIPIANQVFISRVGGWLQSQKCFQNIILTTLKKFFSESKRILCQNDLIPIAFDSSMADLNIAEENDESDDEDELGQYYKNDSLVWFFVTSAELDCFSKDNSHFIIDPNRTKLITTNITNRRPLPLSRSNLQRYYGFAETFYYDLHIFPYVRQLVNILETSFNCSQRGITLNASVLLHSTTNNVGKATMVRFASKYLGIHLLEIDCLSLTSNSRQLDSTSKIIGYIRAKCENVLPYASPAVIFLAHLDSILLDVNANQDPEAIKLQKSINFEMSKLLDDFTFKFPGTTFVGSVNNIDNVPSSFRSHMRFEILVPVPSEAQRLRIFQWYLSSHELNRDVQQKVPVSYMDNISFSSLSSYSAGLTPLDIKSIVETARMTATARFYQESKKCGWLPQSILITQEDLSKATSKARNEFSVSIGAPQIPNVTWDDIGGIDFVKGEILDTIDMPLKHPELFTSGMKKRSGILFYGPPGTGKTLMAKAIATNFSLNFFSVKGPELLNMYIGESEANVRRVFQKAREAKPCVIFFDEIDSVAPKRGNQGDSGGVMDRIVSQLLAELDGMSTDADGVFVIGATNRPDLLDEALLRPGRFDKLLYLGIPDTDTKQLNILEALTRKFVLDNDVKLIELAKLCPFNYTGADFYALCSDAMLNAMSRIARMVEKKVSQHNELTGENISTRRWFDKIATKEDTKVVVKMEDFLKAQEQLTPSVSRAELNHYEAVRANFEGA

binding result [1]: binds
binding result [2]: binds
B1: Pex6 (wild type, HisPex6) (natural protein, yeast, UniProt P33760 1-1030, looked up)
chain: T3 sequence (looked up)
notes: Pex6, yeast, type II AAA+ ATPase; PEX6 amplified from genomic DNA; also called Pex6 of Pex1/6

binding result [3]: binds
B2: Δ188Pex1 (N-terminal truncation mutant of Pex1) (domain or fragment, yeast, UniProt P24004 189-1043, looked up)
chain: RLVKAEYGHSNKTILKNGAIQLLKKVILRSTVCKMDFPKDNLFVVYISDGAQLPSQKGYASIVKCSLRQSKKSDSDNKSVGIPSKKIGVFIKCDSQIPENHIALSSHLWDAFFTHPMNGAKIKLEFLQMNQANIISGRNATVNIKYFGKDVPTKSGDQYSKLLGGSLLTNNLILPTEQIIIEIKKGESEQQLCNLNEISNESVQWKVTQMGKEEVKDIIERHLPKHYHVKETGEVSRTSKDEDDFITVNSIKKEMVNYLTSPIIATPAIILDGKQGIGKTRLLKELINEVEKDHHIFVKYADCETLHETSNLDKTQKLIMEWCSFCYWYGPSLIVLDNVEALFGKPQANDGDPSNNGQWDNASKLLNFFINQVTKIFNKDNKRIRVLFSGKQKTQINPLLFDKHFVSETWSLRAPDKHARAKLLEYFFSKNQIMKLNRDLQFSDLSLETEGFSPLDLEIFTEKIFYDLQLERDCDNVVTRELFSKSLSAFTPSALRGVKLTKETNIKWGDIGALANAKDVLLETLEWPTKYEPIFVNCPLRLRSGILLYGYPGCGKTLLASAVAQQCGLNFISVKGPEILNKFIGASEQNIRELFERAQSVKPCILFFDEFDSIAPKRGHDSTGVTDRVVNQLLTQMDGAEGLDGVYILAATSRPDLIDSALLRPGRLDKSVICNIPTESERLDILQAIVNSKDKDTGQKKFALEKNADLKLIAEKTAGFSGADLQGLCYNAYLKSVHRWLSAADQSEVVPGNDNIEYFSINEHGRREENRLRLKTLLQQDVVHETKTSTSAASELTAVVTINDLLEACQETKPSISTSELVKLRGIYDRFQKDRNGEMPNGENSIDIGSRLSLM
notes: Pex1, yeast, gene segment corresponding to amino acids 189-1,043; source: S. cerevisiae, overexpressed (2% galactose), purified (IgG Sepharose, TEV cleavage, glycerol gradient); not shown: protein A (ProA), C-terminal, cleaved
